# Results reported in patent EP4389150A1, “CONJUGATE COMPOUNDS AND THEIR USE IN CANCER TREATMENT AND DIAGNOSIS” (Technische Universität München, priority 2022, dated 2024).
# Where two headings read alike, the source gives them in different places. Where a SMILES comes first, the peptide text is derived from it. [ ]: non-standard residue; d: D form. The star is where a group is joined. X1 = CN(Cc1ccc(-c2[nH]c3cc(F)cc4c3c2CCNC4=O)cc1)C(=O)CCS*; EuK = O=C(O)CC[C@H](NC(=O)N[C@@H](CCCCN*)C(=O)O)C(=O)O; Ahx = NCCCCCC(=O)O; Mpa = O=C(O)CCS
# Tests used:
# [1] = molecular target: prostate-specific membrane antigen (PSMA) (UniProt Q04609); test: cell uptake of 68Ga-labelled ligand (0.4 nM) on LNCaP cells, gamma counting
# [2] = molecular target: prostate-specific membrane antigen (PSMA) (UniProt Q04609); test: competition with [68Ga]-PSMA-617 (0.4 nM) on LNCaP cells, 60 min on ice
# [3] = Lipophilicity, n-octanol/PBS distribution coefficient; format: physicochemical
# Protocol: Lipophilicity of the conjugates was determine after radiolabeling with ^68Ga. The PSMA ligand (0.80 MBq) was dissolved in PBS (500 µL/pH 7.4) in a reaction vial (1.5 mL; n = 10). Afterwards, n-octanol was added (500 µL) and the mixture was rigorously vortexed for 3 min. Subsequent centrifugation (Biofuge 15, Heraus Sepatech, Osterode, Germany) at 13,000 rpm for 5 min led to a phase separation. After measuring 100 µL of each phase in a γ-counter, the distribution coefficient (logD(O/PBS)) was calculated with Microsoft Excel.
# LNCaP cells = test: Binding and internalization (cell uptake) of 68Ga-labelled PSMA ligands in LNCaP cells; format: cell-based
# Protocol: To determine ligand internalization, LNCaP cells were seeded in a 96 V-bottom well plate at a density of 100,000 cells/well in 5% BSA (w/v)/RPMI medium (100 µL/well) and incubated for 30 min at 37 °C. Afterwards, solutions (25 µL/well) of either 5% BSA (w/v)/RPMI medium or of 2-PMPA (final concentration: 10 µM) in 5% BSA (w/v)/RPMI medium for blockade were added. Then, a solution of the ^68Ga-labeled PSMA-ligand (25 µL/well; 0.4 nM final concentration; AM = 26-30 MBq/nmol) was added to all wells, and the cells were incubated for 5, 15, 30, and 60 min, respectively, at 37 °C. Hereby, each time point was performed in triplicates and each experiment was repeated three times. The internalization process was terminated by placing the plate for 5 min on ice. The free radioligand was obtained by centrifugation of the plate at 600 g for 3 min and removal of the supernatant. Each well was then washed with ice-cold PBS and the fractions of the first two steps were combined. For removal of cell-bound PSMA-ligand, the cells were treated in a next step with ice-cold 2-PMPA-solution (10 µM in PBS; 150 µL/well; 15 min on ice), centrifuged (600 g, 3 min), and washed with ice-cold PBS (150 µL/well). The fractions were again combined. For the analysis of internalized radioligand, the fractions of a 1.0 N NaOH (150 µL/well; 10 min on ice) treatment as well as a concomitant washing step with 1.0 N NaOH (150 µL/well) were pooled. Free, surface bound, and internalized activity, respectively, was measured in a γ-counter.
# [4] = test system: PC3-PIP/PC3-flu bilateral tumor model; format: in vivo, Athymic nude mice; details: for biodistribution profile: 1 h post-injection; for tumor uptake (PET/CT, biodistribution): PSMA+ PC3-PIP versus PSMA- PC3-Flu tumors
# PSMA = molecular target: T1, PSMA (Homo sapiens, UniProt Q04609); test: IC50 determination by competition with [68Ga]-PSMA-617 on LNCaP cells; format: binding; details: [68Ga]-PSMA-617 0.4 nM, 60 min on ice, natGa-labelled ligands
# T1 construct: endogenous in cells; host or cells: LNCaP cells
# Protocol: In the meantime, dilution series of the compounds were prepared in 1% BSA (w/v)/HBSS in a separate 96 U-bottom deep well plate ranging from 12 µM to 153.6 pM in 1:5 dilution steps. Next, solutions (25 µL/well) of either 1% BSA (w/v)/HBSS (control) or of the respective dilution series were transferred to the LNCaP cells containing plate. Hereby, each concentration was pipetted in triplicates and each experiment was repeated three times. Subsequently, [^68Ga]-PSMA-617 (25 µL/well; 0.4 nM final concentration; AM = 26-30 MBq/nmol) in 1% BSA (w/v)/HBSS was added to all wells and the plate was incubated for 60 min on ice. Afterwards, the experiment was terminated by centrifugation at 600 g for 3 min and removal of the supernatant. The cells were then washed with ice-cold HBSS (150 µL/well), centrifuged (600 g, 3 min), and the supernatant as well as the washing fraction were combined, representing the amount of free, unbound radioligand. Bound radioligand was obtained by lysis of the cells with 1.0 N NaOH (150 µL/well; 10 min on ice). Afterwards, the plate was washed a second time with 1.0 N NaOH (150 µL/well). Hereby, the washing step was combined with the NaOH fraction. The quantification of bound and free radioligand was finally accomplished via measuring the samples in a γ-counter.
# Serum stability = format: in vitro ADME; details: 37 °C
# Protocol: For serum stability analysis, 13.5 µL human serum were mixed with 1.5 µL of an aqueous solution of the test compound (200 µM final concentration) and incubated at 37 °C for 0.5, 1, 2, and 24 h, respectively. Afterwards, 25.0 µL MeCN were added, the suspension was centrifuged (14,000 rpm, 30 min, 4 °C), the supernatant was recovered, and finally analyzed by HPLC-ESI-MS using a linear elution gradient from 10 to 95% (v/v) MeCN/0.1% (v/v) TFA in water/0.1% (v/v) TFA for 15 min.
# [5] = 68Ga-labelled, 2 nmol via tail vein, 60 min p.i.
# T1 sequence (Q04609 whole entry): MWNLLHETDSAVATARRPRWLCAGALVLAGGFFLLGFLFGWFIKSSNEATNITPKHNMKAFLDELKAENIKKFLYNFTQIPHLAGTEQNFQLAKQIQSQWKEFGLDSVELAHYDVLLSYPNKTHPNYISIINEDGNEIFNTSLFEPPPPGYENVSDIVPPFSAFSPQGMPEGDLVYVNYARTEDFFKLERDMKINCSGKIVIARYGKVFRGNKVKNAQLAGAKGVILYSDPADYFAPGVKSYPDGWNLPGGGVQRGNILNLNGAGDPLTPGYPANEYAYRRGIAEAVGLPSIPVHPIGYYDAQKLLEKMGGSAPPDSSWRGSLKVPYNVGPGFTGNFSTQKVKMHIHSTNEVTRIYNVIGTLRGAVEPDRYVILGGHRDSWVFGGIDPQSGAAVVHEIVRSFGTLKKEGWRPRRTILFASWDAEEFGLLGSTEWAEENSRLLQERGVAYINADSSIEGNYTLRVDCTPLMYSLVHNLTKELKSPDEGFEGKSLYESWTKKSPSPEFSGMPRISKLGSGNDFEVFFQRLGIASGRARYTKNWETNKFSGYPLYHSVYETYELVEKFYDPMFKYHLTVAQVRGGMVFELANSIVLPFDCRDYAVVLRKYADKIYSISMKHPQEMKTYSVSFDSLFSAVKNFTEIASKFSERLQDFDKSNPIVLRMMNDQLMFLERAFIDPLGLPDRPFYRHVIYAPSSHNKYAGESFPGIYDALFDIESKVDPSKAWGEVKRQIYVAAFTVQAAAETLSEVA
# Chain of prostate-specific membrane antigen (PSMA) (Q04609 whole entry): as above
Compound,% bound of total applied dose [1],IC50 [2],IC50 (PSMA),also measured
PSMARuc-10: DOTAGA-D-Lys(Ruc-SS)-D-Asp-D-Tyr-D-Phe-D-Phe-Ahx-KuE (peptide),6.18%,1.34 nM,,
PSMARuc-13: DOTAGA-D-Lys(Ruc-Sub)-D-Asp-β-Ala-TXA-L-Nal-KuE (peptide),10.8%,0.67 nM,,
PSMARuc-18: Ruc-SS-MMC-D-Asp-D-Asp-β-Ala-TXA-L-Nal-D-Lys-EuE (peptide),6.54%,0.69 nM,,
CN(Cc1ccc(-c2[nH]c3cc(F)cc4c3c2CCNC4=O)cc1)C(=O)CCSSCCC(=O)NCCCC[C@@H](NC(=O)CCC(C(=O)O)N1CCN(CC(=O)O)CCN(CC(=O)O)CCN(CC(=O)O)CC1)C(=O)N[C@H](CC(=O)O)C(=O)NCCC(=O)NC[C@H]1CC[C@H](C(=O)N[C@@H](Cc2ccc3ccccc3c2)C(=O)NCCCC[C@H](NC(=O)N[C@@H](CCC(=O)O)C(=O)O)C(=O)O)CC1 (some centres unmarked) [Conjugate 9],,,3.03 ± 0.2 nM,logD ([3]; pH 7.4): -2.1 ± 0.24; % bound of total applied dose (LNCaP cells): 8.00 ± 1.27%; biodistribution profile ([4]; 68Ga-labelled): uptake is limited to PSMA+ tumors and kidneys
PSMARuc-15: Ruc-SS-MMC-D-Asp-D-Asp-D-Tyr-D-Phe-D-Phe-Ahx-Ahx-KuE (peptide),6.5%,4.28 nM,,
PSMARuc-14: Ruc-SS-MMC-D-Asp-D-Asp-β-Ala-TXA-L-Nal-KuE (peptide),6.46%,2.19 nM,,
"CN(Cc1ccc(-c2[nH]c3cc(F)cc4c3c2CCNC4=O)cc1)C(=O)CCSSCCC(=O)NCCCCN1CCN(CC(=O)O)CCN(C(CCC(=O)N[C@H](CC(=O)O)C(=O)N[C@H](CC(=O)O)C(=O)NCCC(=O)NC[C@H]2CC[C@H](C(=O)N[C@@H](Cc3ccc4ccccc4c3)C(=O)NCCCC[C@@H](NC(=O)CC[C@H](NC(=O)N[C@@H](CCC(=O)O)C(=O)O)C(=O)O)C(=O)O)CC2)C(=O)O)CCN(CC(=O)O)CC1 (single isomer, unassigned) [Conjugate 18]",,,,"PiP/muscle ratios [4, 5]: > 25; PiP:Flu ratios [4, 5]: > 8; tumor uptake (PET/CT, biodistribution) ([4]; 60 min p.i.): selective uptake in PC3-PiP tumors and low uptake in PC3-Flu tumors and other organs"
Ruc-SS-TXA-L-Nal-KuE (PSMARuc-7) (peptide),,9.52 nM,,
CN(Cc1ccc(-c2[nH]c3cc(F)cc4c3c2CCNC4=O)cc1)C(=O)CCSSCCC(=O)NCCCCN1CCN(CC(=O)O)CCN(C(CCC(=O)N[C@H](CC(=O)O)C(=O)N[C@H](CC(=O)O)C(=O)N[C@H](Cc2ccc(O)cc2)C(=O)N[C@H](Cc2ccccc2)C(=O)N[C@H](Cc2ccccc2)C(=O)NCCCCCC(=O)NCCCCCC(=O)NCCCC[C@H](NC(=O)N[C@@H](CCC(=O)O)C(=O)O)C(=O)O)C(=O)O)CCN(CC(=O)O)CC1 (some centres unmarked) [Conjugate 15],,,4.28 ± 0.95 nM,logD ([3]; pH 7.4): -3.4 ± 0.07; % bound of total applied dose (LNCaP cells): 6.50 ± 0.50%
PSMARuc-11: DOTAGA-D-Lys(Ruc-SS)-D-Asp-D-Tyr-D-Phe-L-Nal-Ahx-KuE (peptide),6.45%,5.34 nM,,
O=C(O)CC[C@H](NC(=O)N[C@@H](CCCCNC(=O)[C@H](Cc1ccc2ccccc2c1)NC(=O)[C@H]1CC[C@H](CNC(=O)CN2CCN(CC(=O)O)CCN(CC(=O)O)CCN(CC(=O)O)CC2)CC1)C(=O)O)C(=O)O [PSMA-617],,,1.75 ± 0.16 nM,"logD ([3]; n-octanol/PBS pH 7.4, after radiolabeling with 68Ga, read-out: logD (n-oct/PBS)): -3.62 ± 0.49; % bound of total applied dose (LNCaP cells; 60 min incubation with 0.4 nM 68Ga-labelled conjugates): 10.23 ± 0.86%"
CN(Cc1ccc(-c2[nH]c3cc(F)cc4c3c2CCNC4=O)cc1)C(=O)CCSSCCC(=O)NC[C@H]1CC[C@H](C(=O)N[C@@H](Cc2ccc3ccccc3c2)C(=O)NCCCC[C@H](NC(=O)N[C@@H](CCC(=O)O)C(=O)O)C(=O)O)CC1 [Conjugate 7],,,9.52 ± 2.41 nM,logD (n-oct/PBS) ([3]; pH 7.4): -2.98 ± 0.21
PSMA-617,10.2%,,,
"CN(Cc1ccc(-c2[nH]c3cc(F)cc4c3c2CCNC4=O)cc1)C(=O)CCSSCCC(=O)NCCCC[C@@H](NC(=O)CCC(C(=O)O)N1CCN(CC(=O)O)CCN(CC(=O)O)CCN(CC(=O)O)CC1)C(=O)N[C@H](CC(=O)O)C(=O)N[C@H](Cc1ccc(O)cc1)C(=O)N[C@H](Cc1ccccc1)C(=O)N[C@@H](Cc1ccc2ccccc2c1)C(=O)NCCCCCC(=O)NCCCC[C@H](NC(=O)N[C@@H](CCC(=O)O)C(=O)O)C(=O)O (single isomer, unassigned) [Conjugate 11]",,,5.34 ± 1.45 nM,"logD ([3]; pH 7.4): -3.11 ± 0.08; stable (intact) after incubation in human serum (Serum stability; 2 hours): 93%; intact after incubation in human serum (Serum stability; 24 hours): 74%; % bound of total applied dose (LNCaP cells): 6.45 ± 1.16%; biodistribution profile ([4]; 68Ga-labelled): uptake limited to PSMA-expressing tumors and kidneys; tumor uptake (PET/CT, biodistribution) ([4]; 60 min p.i.): uptake in PSMA+ PC3-PIP tumors and no accumulation in PSMA- PC3-Flu tumors"
CN(Cc1ccc(-c2[nH]c3cc(F)cc4c3c2CCNC4=O)cc1)C(=O)CCSSCCC(=O)NCCCCN1CCN(CC(=O)O)CCN(C(CCC(=O)N[C@H](CC(=O)O)C(=O)N[C@H](CC(=O)O)C(=O)NCCC(=O)NC[C@H]2CC[C@H](C(=O)N[C@@H](Cc3ccc4ccccc4c3)C(=O)NCCCC[C@H](NC(=O)N[C@@H](CCC(=O)O)C(=O)O)C(=O)O)CC2)C(=O)O)CCN(CC(=O)O)CC1 (some centres unmarked) [Conjugate 14],,,2.19 ± 0.37 nM,logD ([3]; pH 7.4): -3.42 ± 0.15; % bound of total applied dose (LNCaP cells): 6.46 ± 0.98%

# Continued, in another order:
% bound of total applied dose [1],IC50 [2],IC50 (PSMA),Compound,also measured
3.48%,2.12 nM,,PSMARuc-12: DOTAGA-D-Lys(Ruc-SS)-D-Asp-D-Tyr-D-Phe-D-Phe-Ahx-Ahx-KuE (peptide),
8%,3.03 nM,,PSMARuc-9: DOTAGA-D-Lys(Ruc-SS)-D-Asp-β-Ala-TXA-L-Nal-KuE (peptide),
5.84%,1.38 nM,,PSMARuc-17: DOTAGA-D-Lys(Ruc-SS)-D-Asp-D-Asp-D-Tyr-D-Phe-D-Phe-Ahx-D-Lys-EuE (peptide),
5.32%,0.82 nM,,PSMARuc-16: DOTAGA-D-Lys(Ruc-SS)-D-Asp-D-Asp-β-Ala-TXA-L-Nal-D-Lys-EuE (peptide),
,1.58 nM,,Ruc-SS-D-Asp-D-Tyr-D-Phe-D-Phe-Ahx-KuE (PSMARuc-8) (peptide),
,,1.58 ± 0.94 nM,CN(Cc1ccc(-c2[nH]c3cc(F)cc4c3c2CCNC4=O)cc1)C(=O)CCSSCCC(=O)N[C@H](CC(=O)O)C(=O)N[C@H](Cc1ccc(O)cc1)C(=O)N[C@H](Cc1ccccc1)C(=O)N[C@H](Cc1ccccc1)C(=O)NCCCCCC(=O)NCCCC[C@H](NC(=O)N[C@@H](CCC(=O)O)C(=O)O)C(=O)O [Conjugate 8] ([Mpa](X1)[dD][dY][dF][dF][Ahx]-EuK),logD (n-oct/PBS) ([3]; pH 7.4): -2.83 ± 0.07
